Results taken from publication PMC7508256.

Assays:
Assay in all cases: MST
DF1 (YTHDF1) = biological target: T1, DF1 (YTHDF1) (UniProt Q9BYJ9 1-559)
T1 sequence: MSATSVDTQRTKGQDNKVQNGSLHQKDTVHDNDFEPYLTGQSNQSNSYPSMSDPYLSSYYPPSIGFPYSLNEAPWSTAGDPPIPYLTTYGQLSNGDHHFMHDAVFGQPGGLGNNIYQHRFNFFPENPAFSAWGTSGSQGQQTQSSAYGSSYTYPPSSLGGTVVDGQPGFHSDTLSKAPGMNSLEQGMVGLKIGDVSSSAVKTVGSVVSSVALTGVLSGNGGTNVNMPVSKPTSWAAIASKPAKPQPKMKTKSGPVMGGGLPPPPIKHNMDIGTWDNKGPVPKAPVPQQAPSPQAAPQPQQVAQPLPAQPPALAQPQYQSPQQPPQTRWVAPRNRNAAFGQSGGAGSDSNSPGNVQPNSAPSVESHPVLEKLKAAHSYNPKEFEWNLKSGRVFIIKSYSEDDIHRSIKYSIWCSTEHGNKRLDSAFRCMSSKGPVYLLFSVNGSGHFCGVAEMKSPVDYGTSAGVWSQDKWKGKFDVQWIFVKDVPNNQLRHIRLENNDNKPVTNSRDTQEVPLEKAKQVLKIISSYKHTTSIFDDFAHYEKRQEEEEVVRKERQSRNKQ

DF3 (YTHDF3) = biological target: T2, DF3 (YTHDF3) (UniProt Q7Z739 1-585)
T2 sequence: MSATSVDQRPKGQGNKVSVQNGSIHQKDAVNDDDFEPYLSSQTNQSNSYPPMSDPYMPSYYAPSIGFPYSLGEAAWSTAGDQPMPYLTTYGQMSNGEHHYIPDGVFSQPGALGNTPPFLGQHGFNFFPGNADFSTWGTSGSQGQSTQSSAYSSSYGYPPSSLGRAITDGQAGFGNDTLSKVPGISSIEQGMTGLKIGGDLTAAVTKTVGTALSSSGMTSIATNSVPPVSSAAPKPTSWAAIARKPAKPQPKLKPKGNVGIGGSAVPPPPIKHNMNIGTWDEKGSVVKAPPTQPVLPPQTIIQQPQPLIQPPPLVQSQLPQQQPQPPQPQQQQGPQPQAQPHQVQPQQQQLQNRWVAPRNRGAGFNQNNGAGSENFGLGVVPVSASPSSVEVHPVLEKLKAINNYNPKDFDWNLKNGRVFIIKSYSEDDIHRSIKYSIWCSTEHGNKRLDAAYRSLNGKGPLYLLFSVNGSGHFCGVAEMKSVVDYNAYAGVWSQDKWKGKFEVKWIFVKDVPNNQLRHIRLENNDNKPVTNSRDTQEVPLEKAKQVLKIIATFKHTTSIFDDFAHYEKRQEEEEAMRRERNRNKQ

DF2 (YTHDF2) = biological target: T3, DF2 (YTHDF2) (UniProt Q9Y5A9 1-579)
T3 sequence: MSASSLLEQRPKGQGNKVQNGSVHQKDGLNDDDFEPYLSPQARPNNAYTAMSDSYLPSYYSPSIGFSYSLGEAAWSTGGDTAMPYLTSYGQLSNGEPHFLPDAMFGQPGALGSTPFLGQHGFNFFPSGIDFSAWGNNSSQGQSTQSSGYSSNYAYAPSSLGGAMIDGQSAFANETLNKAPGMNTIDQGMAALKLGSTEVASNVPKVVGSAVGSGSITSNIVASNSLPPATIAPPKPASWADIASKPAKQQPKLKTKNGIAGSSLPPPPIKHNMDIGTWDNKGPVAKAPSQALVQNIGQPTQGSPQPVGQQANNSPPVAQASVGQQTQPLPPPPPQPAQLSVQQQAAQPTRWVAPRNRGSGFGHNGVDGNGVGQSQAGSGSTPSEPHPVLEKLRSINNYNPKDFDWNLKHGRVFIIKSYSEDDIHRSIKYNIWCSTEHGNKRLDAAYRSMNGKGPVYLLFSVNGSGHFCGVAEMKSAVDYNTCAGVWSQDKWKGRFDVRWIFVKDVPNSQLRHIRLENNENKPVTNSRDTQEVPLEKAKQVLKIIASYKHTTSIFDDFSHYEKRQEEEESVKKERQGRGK

Measured: binding result

B1: m6A-modified RNA (ssRNA)
RNA: UCCGGACUGU
modifications: N6-methyladenosine at position 6
binds: all assays above
